Substitutions are numbered along the chain they refer to. Numbers in names are those of the source.
How the values were obtained:
ReAV = target: T1, ReAV (Rhizobium etli, UniProt Q2K0Z2); test: multiple injection isothermal titration calorimetry (ITC-MIM); format: biochemical; conditions: 10 mM Tris-HCl pH 9.0, 37 °C, no added Zn2+; WT values cited to the same group's earlier paper (Sliwiak et al., 2024); cited from earlier work
T1 construct: gene ansA; recombinant from plasmid pET151-D-ReAV in E. coli BL21 Gold (DE3); His-tag cut with TEV protease; homodimer, Zn site C135/K138/C189
T1 sequence (Q2K0Z2 entry or part of it): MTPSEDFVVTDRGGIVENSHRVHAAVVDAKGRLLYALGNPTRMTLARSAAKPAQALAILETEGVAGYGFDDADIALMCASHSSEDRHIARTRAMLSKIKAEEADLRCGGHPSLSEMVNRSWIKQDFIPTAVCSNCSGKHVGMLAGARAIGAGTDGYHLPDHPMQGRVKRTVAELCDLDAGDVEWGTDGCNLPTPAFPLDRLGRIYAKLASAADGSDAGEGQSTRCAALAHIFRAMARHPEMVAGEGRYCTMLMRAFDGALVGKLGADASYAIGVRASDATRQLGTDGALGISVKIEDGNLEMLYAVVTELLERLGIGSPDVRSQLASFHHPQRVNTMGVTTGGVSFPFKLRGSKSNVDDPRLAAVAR
Excerpt: (§1) multiple injection isothermal titration calorimetry (ITC-MIM) on ReAV

[1] = substrate: NC(=O)C[C@H](N)C(=O)O; test: as above; format: biochemical, Rhizobium etli; conditions: 10 mM Tris-HCl pH 9.0, 37 °C, no added Zn2+
Excerpt: as §1

[2] = target: the molecule itself; test: crystal structure; vapor diffusion crystals grown at 19°C, protein supplemented with 0.5%-1% DDM; data at 100 K; molecular replacement with WT ReAV (PDB 7os5); homodimer(s) in the asymmetric unit

NC(=O)C[C@H](N)C(=O)O [L-asparagine]
Km (ReAV): 2700 ± 100 µM

B1: ReAV H139A (enzyme, Rhizobium etli)
chain: MTPSEDFVVTDRGGIVENSHRVHAAVVDAKGRLLYALGNPTRMTLARSAAKPAQALAILETEGVAGYGFDDADIALMCASHSSEDRHIARTRAMLSKIKAEEADLRCGGHPSLSEMVNRSWIKQDFIPTAVCSNCSGKAVGMLAGARAIGAGTDGYHLPDHPMQGRVKRTVAELCDLDAGDVEWGTDGCNLPTPAFPLDRLGRIYAKLASAADGSDAGEGQSTRCAALAHIFRAMARHPEMVAGEGRYCTMLMRAFDGALVGKLGADASYAIGVRASDATRQLGTDGALGISVKIEDGNLEMLYAVVTELLERLGIGSPDVRSQLASFHHPQRVNTMGVTTGGVSFPFKLRGSKSNVDDPRLAAVAR
notes: Homodimer in the crystal (two dimers per asymmetric unit); also called H139A mutant; Rhizobium etli Class 3 L-asparaginase ReAV H139A mutein; source: E. coli BL21 Gold, purified (HisTrap, TEV digestion, Superdex 200)
Km [1]: 5600 ± 200 µM | kcat [1]: 445 ± 20 s⁻¹ | kcat/Km [1]: 80000 ± 1000 M⁻¹ s⁻¹ | binding result [2]: binds

B2: ReAV C135A (enzyme, Rhizobium etli)
chain: B1 chain with C135A, A139H
notes: Homodimer in the crystal (one dimer per asymmetric unit); also called C135A mutant; Rhizobium etli Class 3 L-asparaginase ReAV C135A mutein; source: E. coli BL21 Gold, purified (HisTrap, TEV digestion, Superdex 200)
binding result [2]: binds

B3: ReAV D187A (enzyme, Rhizobium etli)
chain: B1 chain with A139H, D187A
notes: Homodimer in the crystal (two dimers per asymmetric unit); also called D187A mutant; Rhizobium etli Class 3 L-asparaginase ReAV D187A mutein; source: E. coli BL21 Gold, purified (HisTrap, TEV digestion, Superdex 200)
binding result [2]: binds

B4: ReAV K138A (enzyme, Rhizobium etli)
chain: B1 chain with K138A, A139H
notes: Homodimer in the crystal (two dimers per asymmetric unit); also called K138A mutant; Rhizobium etli Class 3 L-asparaginase ReAV K138A mutein; source: E. coli BL21 Gold, purified (HisTrap, TEV digestion, Superdex 200)
binding result [2]: binds

B5: ReAV C189A (enzyme, Rhizobium etli)
chain: B1 chain with A139H, C189A
notes: Homodimer in the crystal (one dimer per asymmetric unit); also called C189A mutant; Rhizobium etli Class 3 L-asparaginase ReAV C189A mutein; source: E. coli BL21 Gold, purified (HisTrap, TEV digestion, Superdex 200)
binding result [2]: binds
